Experimental findings from publication PMC6242706 (Molecular Cell, 2018) are described below.

Experiment [1] deals with T1, Mouse UHRF1^ΔMW (3-782) (mouse, UniProt Q8VDF2 3-782).
T1 sequence: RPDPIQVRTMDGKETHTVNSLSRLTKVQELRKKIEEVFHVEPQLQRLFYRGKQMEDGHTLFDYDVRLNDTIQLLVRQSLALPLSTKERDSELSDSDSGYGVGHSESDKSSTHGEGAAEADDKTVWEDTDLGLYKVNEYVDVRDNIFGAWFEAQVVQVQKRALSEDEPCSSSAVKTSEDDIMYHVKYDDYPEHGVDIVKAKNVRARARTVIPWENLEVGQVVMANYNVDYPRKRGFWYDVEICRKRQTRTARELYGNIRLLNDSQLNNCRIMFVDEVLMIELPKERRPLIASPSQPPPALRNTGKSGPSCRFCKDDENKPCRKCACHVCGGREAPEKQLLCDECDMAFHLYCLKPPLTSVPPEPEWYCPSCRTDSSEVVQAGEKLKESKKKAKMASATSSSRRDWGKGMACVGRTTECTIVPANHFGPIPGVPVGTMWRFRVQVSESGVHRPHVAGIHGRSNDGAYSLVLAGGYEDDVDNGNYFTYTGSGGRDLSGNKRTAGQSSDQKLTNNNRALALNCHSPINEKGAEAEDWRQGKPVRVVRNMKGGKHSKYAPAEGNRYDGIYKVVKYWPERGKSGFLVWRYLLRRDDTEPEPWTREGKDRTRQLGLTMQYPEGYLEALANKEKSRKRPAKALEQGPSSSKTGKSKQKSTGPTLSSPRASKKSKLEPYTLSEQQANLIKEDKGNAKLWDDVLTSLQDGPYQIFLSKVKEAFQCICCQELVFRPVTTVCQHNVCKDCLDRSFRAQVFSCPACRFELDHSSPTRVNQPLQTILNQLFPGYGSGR
The experiment is described as follows: pull-down.

Experiment [2] deals with T2, Mouse UHRF1 (1-782), wild-type with the native N terminus (mouse, UniProt Q8VDF2 1-782).
T2 sequence: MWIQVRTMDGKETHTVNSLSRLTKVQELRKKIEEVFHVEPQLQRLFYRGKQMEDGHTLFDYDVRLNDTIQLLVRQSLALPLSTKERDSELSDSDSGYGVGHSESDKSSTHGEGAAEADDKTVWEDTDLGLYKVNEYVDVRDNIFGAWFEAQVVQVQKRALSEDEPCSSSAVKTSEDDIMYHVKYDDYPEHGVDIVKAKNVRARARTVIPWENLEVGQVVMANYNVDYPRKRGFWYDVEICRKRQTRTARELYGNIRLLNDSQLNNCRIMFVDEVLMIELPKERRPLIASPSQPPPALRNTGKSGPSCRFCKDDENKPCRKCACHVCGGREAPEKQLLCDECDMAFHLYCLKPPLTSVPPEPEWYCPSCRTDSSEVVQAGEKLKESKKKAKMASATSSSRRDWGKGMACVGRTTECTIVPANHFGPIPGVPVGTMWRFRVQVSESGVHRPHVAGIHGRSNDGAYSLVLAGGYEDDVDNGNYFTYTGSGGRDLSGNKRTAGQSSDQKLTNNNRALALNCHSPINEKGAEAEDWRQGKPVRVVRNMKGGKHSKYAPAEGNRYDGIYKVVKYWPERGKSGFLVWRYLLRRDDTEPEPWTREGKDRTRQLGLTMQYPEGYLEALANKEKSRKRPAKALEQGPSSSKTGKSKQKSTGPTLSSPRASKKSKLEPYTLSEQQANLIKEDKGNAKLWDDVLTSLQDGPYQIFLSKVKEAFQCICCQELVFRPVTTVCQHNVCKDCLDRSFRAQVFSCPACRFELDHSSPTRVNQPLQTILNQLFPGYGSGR
In words: pull-down.

In experiment [3] the target is T3, Mouse UHRF1 (1-782) F46A point mutant (mouse, UniProt Q8VDF2 1-782, F46A).
T3 sequence: T2 sequence with F46A
The experiment is described as follows: pull-down.

Experiment [4] addresses T2, Mouse UHRF1 (1-782), wild-type with the …. In words: cross-linking.
For experiment [5], the target named is T1, Mouse UHRF1^ΔMW (3-782). The experiment is described as follows: cross-linking.

Changes are numbered by the printed parent chain. Names and notes keep the numbering of the source.

B1: GST-UbcH5a (human UBE2D1, wild-type) (enzyme)
chain: not shown
In the case of B1, the binding result in experiment [1], in experiment [2] and in experiment [3] was “binds” each time.

B2: GST-UbcH5a S22R (human UBE2D1 S22R) (enzyme)
chain: not shown
As to B2, the binding result in experiment [2] is “binds”.

B3: UbcH5a (human UBE2D1), without GST (enzyme)
chain: not shown
For the molecule B3, the binding result in experiment [4] and in experiment [5] was “binds” each time.
